Measured values taken from patent US20250171379A1 (Janssen / Centocor, published 2025).

B1: anti-PSMA mAb PSMB127 (antibody, human IgG4 S228P, kappa, F234A L235A, V domains shown)
VH: EVQLLESGGGLVQPGGSLRLSCAASGFTFKSDAMHWVRQAPGKGLEWVSEISGSGGYTNYADSVKGRFTISRDNSKNTLYLQMNSLRAEDTAVYYCARDSYDSSLYVGDYFDYWGQGTLVTVSS
VL: EIVLTQSPATLSLSPGERATLSCRASQSVSSYLAWYQQKPGQAPRLLIYDASNRATGIPARFSGSGSGTDFTLTISSLEPEDFAVYYCQQRSNWPLTFGQGTKVEIKR
notes: Parental, unmodified human IgG4 antibody
B2: anti-PSMA mAb-DFO (site specific MTG azide clicked with DFO-DBCO) (antibody, human IgG4 S228P, kappa, F234A L235A, V domains shown)
VH: EVQLLESGGGLVQPGGSLRLSCAASGFTFKSDAMHWVRQAPGKGLEWVSEISGSGGYTNYADSVKGRFTISRDNSKNTLYLQMNSLRAEDTAVYYCARDSYDSSLYVGDYFDYWGQGTLVTVSS
VL: EIVLTQSPATLSLSPGERATLSCRASQSVSSYLAWYQQKPGQAPRLLIYDASNRATGIPARFSGSGSGTDFTLTISSLEPEDFAVYYCQQRSNWPLTFGQGTKVEIKR
modifications: deglycosylated with PNGase F; 3-azido propylamine at Gln295 by microbial transglutaminase, clicked with unchelated DFO-DBCO; CAR 2
notes: Human IgG4; also called anti-PSMA mAb (MTG) mAb-DFO
B3: anti-PSMA mAb-azide (site specific glycan) (antibody, human IgG4 S228P, kappa, F234A L235A, V domains shown)
VH: EVQLLESGGGLVQPGGSLRLSCAASGFTFKSDAMHWVRQAPGKGLEWVSEISGSGGYTNYADSVKGRFTISRDNSKNTLYLQMNSLRAEDTAVYYCARDSYDSSLYVGDYFDYWGQGTLVTVSS
VL: EIVLTQSPATLSLSPGERATLSCRASQSVSSYLAWYQQKPGQAPRLLIYDASNRATGIPARFSGSGSGTDFTLTISSLEPEDFAVYYCQQRSNWPLTFGQGTKVEIKR
modifications: Fc glycan trimmed with GlycINATOR to the innermost GlcNAc, GalNAz azido sugar added with GalT; CAR exactly 2
notes: Human IgG4; also called anti-PSMA mAb (glycan) mAb-azide
B4: anti-PSMA mAb-DOTA (site specific MTG azide clicked with DOTA-GA-DBCO) (antibody, human IgG4 S228P, kappa, F234A L235A, V domains shown)
VH: EVQLLESGGGLVQPGGSLRLSCAASGFTFKSDAMHWVRQAPGKGLEWVSEISGSGGYTNYADSVKGRFTISRDNSKNTLYLQMNSLRAEDTAVYYCARDSYDSSLYVGDYFDYWGQGTLVTVSS
VL: EIVLTQSPATLSLSPGERATLSCRASQSVSSYLAWYQQKPGQAPRLLIYDASNRATGIPARFSGSGSGTDFTLTISSLEPEDFAVYYCQQRSNWPLTFGQGTKVEIKR
modifications: deglycosylated with PNGase F; 3-azido propylamine at Gln295 by microbial transglutaminase, clicked with unchelated DOTA-GA-DBCO; CAR 2
notes: Human IgG4; also called anti-PSMA mAb (MTG) mAb-DOTA
B5: anti-PSMA mAb, deglycosylated (MTG samples) (antibody, human IgG4 S228P, kappa, F234A L235A, V domains shown)
VH: EVQLLESGGGLVQPGGSLRLSCAASGFTFKSDAMHWVRQAPGKGLEWVSEISGSGGYTNYADSVKGRFTISRDNSKNTLYLQMNSLRAEDTAVYYCARDSYDSSLYVGDYFDYWGQGTLVTVSS
VL: EIVLTQSPATLSLSPGERATLSCRASQSVSSYLAWYQQKPGQAPRLLIYDASNRATGIPARFSGSGSGTDFTLTISSLEPEDFAVYYCQQRSNWPLTFGQGTKVEIKR
modifications: deglycosylated with Rapid PNGase F (all N-glycans released)
notes: Human IgG4; also called anti-PSMA mAb (MTG) Deglycosylated
B6: anti-PSMA mAb-azide (random azide) (antibody, human IgG4 S228P, kappa, F234A L235A, V domains shown)
VH: EVQLLESGGGLVQPGGSLRLSCAASGFTFKSDAMHWVRQAPGKGLEWVSEISGSGGYTNYADSVKGRFTISRDNSKNTLYLQMNSLRAEDTAVYYCARDSYDSSLYVGDYFDYWGQGTLVTVSS
VL: EIVLTQSPATLSLSPGERATLSCRASQSVSSYLAWYQQKPGQAPRLLIYDASNRATGIPARFSGSGSGTDFTLTISSLEPEDFAVYYCQQRSNWPLTFGQGTKVEIKR
modifications: random conjugation of NHS-PEG4-azide to amines of the antibody, CAR 2.4
notes: Human IgG4; sites of modification random, not located; also called anti-PSMA mAb (random azide) mAb-azide
B7: anti-PSMA mAb-DOTA (random azide clicked with DOTA-GA-DBCO) (antibody, human IgG4 S228P, kappa, F234A L235A, V domains shown)
VH: EVQLLESGGGLVQPGGSLRLSCAASGFTFKSDAMHWVRQAPGKGLEWVSEISGSGGYTNYADSVKGRFTISRDNSKNTLYLQMNSLRAEDTAVYYCARDSYDSSLYVGDYFDYWGQGTLVTVSS
VL: EIVLTQSPATLSLSPGERATLSCRASQSVSSYLAWYQQKPGQAPRLLIYDASNRATGIPARFSGSGSGTDFTLTISSLEPEDFAVYYCQQRSNWPLTFGQGTKVEIKR
modifications: random NHS-PEG4-azide on amines, clicked with unchelated DOTA-GA-DBCO, CAR 2.4
notes: Human IgG4; also called anti-PSMA mAb (random azide) mAb-DOTA
B8: anti-PSMA mAb-azide (site specific MTG) (antibody, human IgG4 S228P, kappa, F234A L235A, V domains shown)
VH: EVQLLESGGGLVQPGGSLRLSCAASGFTFKSDAMHWVRQAPGKGLEWVSEISGSGGYTNYADSVKGRFTISRDNSKNTLYLQMNSLRAEDTAVYYCARDSYDSSLYVGDYFDYWGQGTLVTVSS
VL: EIVLTQSPATLSLSPGERATLSCRASQSVSSYLAWYQQKPGQAPRLLIYDASNRATGIPARFSGSGSGTDFTLTISSLEPEDFAVYYCQQRSNWPLTFGQGTKVEIKR
modifications: deglycosylated with PNGase F; 3-azido propylamine at Gln295 by microbial transglutaminase; CAR 2
notes: Human IgG4; also called anti-PSMA mAb (MTG) mAb-azide
B9: anti-PSMA mAb-DFO (random azide clicked with DFO-DBCO) (antibody, human IgG4 S228P, kappa, F234A L235A, V domains shown)
VH: EVQLLESGGGLVQPGGSLRLSCAASGFTFKSDAMHWVRQAPGKGLEWVSEISGSGGYTNYADSVKGRFTISRDNSKNTLYLQMNSLRAEDTAVYYCARDSYDSSLYVGDYFDYWGQGTLVTVSS
VL: EIVLTQSPATLSLSPGERATLSCRASQSVSSYLAWYQQKPGQAPRLLIYDASNRATGIPARFSGSGSGTDFTLTISSLEPEDFAVYYCQQRSNWPLTFGQGTKVEIKR
modifications: random NHS-PEG4-azide on amines, clicked with unchelated DFO-DBCO, CAR 2.4
notes: Human IgG4; also called anti-PSMA mAb (random azide) mAb-DFO
B10: anti-PSMA mAb-DOTA (site specific glycan azide clicked with DOTA-GA-DBCO) (antibody, human IgG4 S228P, kappa, F234A L235A, V domains shown)
VH: EVQLLESGGGLVQPGGSLRLSCAASGFTFKSDAMHWVRQAPGKGLEWVSEISGSGGYTNYADSVKGRFTISRDNSKNTLYLQMNSLRAEDTAVYYCARDSYDSSLYVGDYFDYWGQGTLVTVSS
VL: EIVLTQSPATLSLSPGERATLSCRASQSVSSYLAWYQQKPGQAPRLLIYDASNRATGIPARFSGSGSGTDFTLTISSLEPEDFAVYYCQQRSNWPLTFGQGTKVEIKR
modifications: Fc glycan trimmed to the innermost GlcNAc, GalNAz azido sugar added, clicked with unchelated DOTA-GA-DBCO; CAR 2
notes: Human IgG4; also called anti-PSMA mAb (glycan) mAb-DOTA

These binders were tested against T1, human prostate-specific membrane antigen (PSMA) (human, UniProt Q04609 1-750) (assay: flow cytometry on C4-2B cells (PSMA+), AlexaFluor647 anti-human IgG secondary, MFI curve fit; parental in the MTG series).
T1 construct: whole, on cells; also called PSMA+ C4-2B cells
Description: (§1) Cell binding of azide-modified antibodies, DOTA-DBCO-azide modified antibodies, and DFO-DBCO-azide modified antibodies was compared to the parental mAbs for the conjugates described in Table 1. Cell lines expressing the mAb target were treated with antibody or conjugate in a range of a concentrations, and binding was measured by flow cytometry. […] Anti-PSMA mAb was evaluated for binding to PSMA+C4-2b cells.
(§2) Flow Cytometry: Cells were detached from flask using enzyme free cell dissociation buffer (Gibco, Waltham, MA) and strained through a 40 μm filter (Falcon). 5×10⁴ cells were seeded per well in a 96-well u-bottom plate. Cells were incubated with conjugated antibody or parental antibody diluted in BSA stain buffer (BD Bioscience, San Jose, CA) for 1 hr at 4° C. Cells were washed twice with stain buffer. […] Cells were washed twice with stain buffer then resuspended in a final volume of 25 μL/well in stain buffer and read on the iQue® Screener flow cytometer (Intellicyt®). […] Live cells were determined by excluding events with high nucleic acid stain. Mean fluorescence intensity (MFI) was determined on live cells and graphed in GraphPad® Prism 7 (GraphPad® Software) as log of antibody concentration vs. MFI. A non-linear regression curve fit was added to data and EC₅₀ values were calculated.

T1 sequence (Q04609 whole entry): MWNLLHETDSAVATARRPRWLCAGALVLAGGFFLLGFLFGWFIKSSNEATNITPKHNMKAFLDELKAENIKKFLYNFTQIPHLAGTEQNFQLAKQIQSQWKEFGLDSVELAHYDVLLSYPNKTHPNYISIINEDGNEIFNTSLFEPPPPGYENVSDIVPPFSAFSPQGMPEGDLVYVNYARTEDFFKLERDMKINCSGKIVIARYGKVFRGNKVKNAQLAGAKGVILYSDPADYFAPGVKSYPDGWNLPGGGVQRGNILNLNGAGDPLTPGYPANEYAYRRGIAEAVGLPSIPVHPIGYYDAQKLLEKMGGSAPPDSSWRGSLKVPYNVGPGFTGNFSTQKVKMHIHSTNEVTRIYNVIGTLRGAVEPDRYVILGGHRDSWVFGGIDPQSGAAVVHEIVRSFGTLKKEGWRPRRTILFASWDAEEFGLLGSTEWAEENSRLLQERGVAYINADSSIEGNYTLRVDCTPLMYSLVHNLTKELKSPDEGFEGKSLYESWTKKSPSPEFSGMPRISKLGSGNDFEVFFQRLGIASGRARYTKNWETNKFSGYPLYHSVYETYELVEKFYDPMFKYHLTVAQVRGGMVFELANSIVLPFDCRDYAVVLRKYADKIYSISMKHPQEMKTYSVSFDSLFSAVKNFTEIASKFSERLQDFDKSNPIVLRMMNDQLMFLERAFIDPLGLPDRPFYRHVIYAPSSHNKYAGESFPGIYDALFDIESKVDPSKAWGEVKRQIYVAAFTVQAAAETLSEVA

Row | Binder | EC50 [nM]
1 | B1 | 4.1

These binders were tested against T1, human prostate-specific membrane … (assay: flow cytometry on C4-2B cells (PSMA+), AlexaFluor647 anti-human IgG secondary, MFI curve fit).
Description: as §1
Flow Cytometry: Cells were detached from flask using enzyme free cell dissociation buffer (Gibco, Waltham, MA) and strained through a 40 μm filter (Falcon). 5×10⁴ cells were seeded per well in a 96-well u-bottom plate. Cells were incubated with conjugated antibody or parental antibody diluted in BSA stain buffer (BD Bioscience, San Jose, CA) for 1 hr at 4° C. Cells were washed twice with stain buffer. Cells were then incubated in the dark for 30 min at 4° C. with AlexaFluor647 tagged anti-human IgG secondary antibody (Jackson ImmunoResearch Laboratories). Secondary antibodies were diluted 1:200 in stain buffer containing 3% donkey serum (Rockland Immunochemicals). For the last 10 minutes of the incubation SYTOX® Green Nucleic Acid Stain (ThermoFisher) was added to cells at a final concentration of 30 nM. Cells were washed twice with stain buffer then resuspended in a final volume of 25 μL/well in stain buffer and read on the iQue® Screener flow cytometer (Intellicyt®). ForeCyt® software was used to analyze data. Live cells were determined by excluding events with high nucleic acid stain. Mean fluorescence intensity (MFI) was determined on live cells and graphed in GraphPad® Prism 7 (GraphPad® Software) as log of antibody concentration vs. MFI. A non-linear regression curve fit was added to data and EC₅₀ values were calculated.

Row | Binder | EC50 [nM]
2 | B2 | 4.5
3 | B3 | 0.5
4 | B4 | 6.7
5 | B5 | 3.4
6 | B6 | 4.7
7 | B7 | 5.4
8 | B8 | 5
9 | B9 | 4.6
10 | B10 | 0.7

What follows are binders tested against T1, human prostate-specific membrane … (assay: flow cytometry on C4-2B cells (PSMA+), AlexaFluor647 anti-human IgG secondary, MFI curve fit; parental in the glycan series).
Description: as §1, §2

Row | Binder | EC50 [nM]
11 | B1 | 0.7

Each binder was assayed against T1, human prostate-specific membrane … (assay: flow cytometry on C4-2B cells (PSMA+), AlexaFluor647 anti-human IgG secondary, MFI curve fit; parental in the random azide series).
Description: as §1, §2

Row | Binder | EC50 [nM]
12 | B1 | 5.5
